According to article PMC7527733:

How the values were obtained:
[1] = molecular target: Elizabethkingia anophelis strain AG1 CDC-like protein (CDCL) (Elizabethkingia anophelis strain AG1); assay: SDS-agarose gel electrophoresis (SDS-AGE)
[2] = molecular target: Elizabethkingia anophelis strain AG1 short CDC-like protein (CDCL^S) (Elizabethkingia anophelis strain AG1); assay: […]) in 20 mM HEPES (pH 7), 150 mM NaCl, […] (55:45) […]

“Elizabethkingia anophelis strain AG1 CDC-like protein (CDCL) (natural protein)” was tested, and the stoichiometry N [1] was 2.

“Elizabethkingia anophelis strain AG1 short CDC-like protein (CDCL^S) (natural protein)” showed a stoichiometry N [2] of 28 monomers.
